As usually defined, the stoichiometry N is the number of molecules, sites or subunits per partner or assembly.

We go through one substance from article PMC9871958.

The target in the test is SARS-CoV-2 spike ectodomain (S-trimer) (SARS-CoV-2) (UniProt P0DTC2). The test can be described thus: cryo-EM structure.

As for “SARS-CoV-2 spike ectodomain (S-trimer) (from UniProt P0DTC2 14-1213) (complex)”, the stoichiometry N worked out at 3.
